Experimental findings from patent US20220098305A1 (Hoffmann-La Roche, published 2022) are described below.

Assay [1] concerns the target T1, recombinant monomeric human ICOS Fc(kih) Avi tag (human, UniProt P0DOX5 223-449 = IgG part, biotin on the Avi tag in the ligand-blocking and the SPR competition assays).
T1 construct: also called recombinant human ICOS; biotinylated human ICOS Fc(kih)
The experiment in a line: SPR competition on human ICOS Fc(kih); second injection 100 nM; competitor (row): Molecule 20. Here is the method:
(§1) Immobilization levels up to 600 resonance units (RU) were used. […] Bulk refractive index differences were corrected for by subtracting the response obtained on reference flow cell.
(§2) The SPR experiments were performed on a Biacore T200 at 25° C. with HBS-EP as running buffer (0.01 M HEPES pH 7.4, 0.15 M NaCl, 3 mM EDTA, 0.005% Surfactant P20, Biacore, Freiburg/Germany).

The target of assay [2] is T2, human ICOS (human, UniProt Q9Y6W8 21-199).
T2 construct: The cell that carries it is named under assay; also called huICOS; CD278
T2 sequence: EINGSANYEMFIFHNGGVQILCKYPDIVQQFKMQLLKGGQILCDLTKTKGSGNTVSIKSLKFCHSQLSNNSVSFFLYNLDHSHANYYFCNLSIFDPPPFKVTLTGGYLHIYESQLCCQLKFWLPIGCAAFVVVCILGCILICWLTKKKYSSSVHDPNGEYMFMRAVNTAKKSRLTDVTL
The assay is described as follows: flow cytometry, MFI(ICOSL+anti-ICOS)/MFI(anti-ICOS only)*100 at 120 nM; competitor ICOSL. Here is the method:
(§3) Briefly, cells were harvested, counted, checked for viability and re-suspended at 1 million cells per ml in FACS buffer (PBS with 0.1% BSA). […] Cells were washed again twice with cold PBS 0.1% BSA and then re-incubated and fixed for 20 min at 4° C. in the dark, using 75 μl of 1% PFA in FACS buffer per well. Fluorescence was analyzed by FACS using a FACS Fortessa (Software FACS Diva. Data was analyzed using GraphPadPrism 7.

The target in assay [3] is T2, human ICOS. The assay is described as follows: flow cytometry on SR cells expressing human ICOS, PE-labelled secondary antibody, MFI. Here is the method: (§4) Briefly, suspension cells were harvested, counted, checked for viability and re-suspended at 1 million cells per ml in FACS buffer (PBS with 0.1% BSA). […] The staining was fixed for 20 min at 4° C. in the dark, using 75 μl of 1% PFA in FACS buffer per well.
(§5) In addition, binding of the above molecules to human SR cells (ATCC® CRL-2262) was performed as described above apart from the following modifications: SR cells were re-suspended at 2 million cells per ml in FACS buffer (BD).
(§6) Fluorescence was analyzed by FACS using a FACS Fortessa (Software FACS Diva). Binding curves and EC50 values were obtained using GraphPadPrism 7.

The target of assay [4] is T2, human ICOS. The experiment in a line: flow cytometry on CHO cells stably expressing human ICOS, PE-labelled secondary antibody, median fluorescence intensity (MFI). Here is the method: as §4, §6
Assay [5] deals with T2, human ICOS. The experiment in a line: flow cytometry, ICOS+ CHO cells, 120 nM anti-ICOS IgG, no ICOSL. Here is the method:
as §3

Assay [6] concerns the target T2, human ICOS. The assay is described as follows: flow cytometry, CHO cells expressing human ICOS. Here is the method:
as §4, §6

The target of assay [7] is T2, human ICOS. The experiment in a line: flow cytometry, SR cells. Here is the method:
as §4, §5, §6

Assay [8] has as its target T2, human ICOS. The experiment in a line: flow cytometry, ICOS+ CHO cells, 120 nM anti-ICOS IgG pre-bound, then ICOSL (competitor) 120 nM. The method, then:
as §3

In assay [9] the target is T2, human ICOS. The assay is described as follows: cell-based or functional assay.
In assay [10] the target is T1, recombinant monomeric human ICOS …. The assay is described as follows: SPR (Biacore T200, 25 C), antibody captured on anti-rabbit Fc, ICOS Fc(kih) 7.5-600 nM as analyte, 1:1 Langmuir fit. Here is the method:
(§7) All SPR experiments were performed on a Biacore T200 at 25° C. with HBS-EP as running buffer (0.01 M HEPES pH 7.4, 0.15 M NaCl, 3 mM EDTA, 0.005% Surfactant P20, Biacore, Freiburg/Germany).
Setup 1: Anti-rabbit Fc antibody (Jackson ImmunoResearch, Cambridgeshire/UK) was directly coupled on a CM5 chip at pH 4.5 using the standard amine coupling kit (Biacore, Freiburg/Germany). The immobilization level was approximately 9000 RU. […] The dissociation was monitored for 720 seconds. Bulk refractive index differences were corrected for by subtracting the response obtained on reference flow cell.

Assay [11] has the same target. The assay is described as follows: SPR competition on human ICOS Fc(kih); second injection 100 nM; competitor (row): Molecule 14. The method, then:
as §1, §2

Assay [12] has the same target. The assay is described as follows: SPR competition on human ICOS Fc(kih); second injection 100 nM; competitor (row): Molecule 8. The method, then: as §1, §2
Assay [13] shares this target. The experiment in a line: SPR competition on human ICOS Fc(kih); second injection 100 nM; competitor (row): Molecule 18. The method, then:
as §1, §2

The target is the same in assay [14]. The assay is described as follows: SPR (Biacore T200, 25 C), antibody captured on anti-mouse IgG, ICOS Fc(kih) 7.5-600 nM as analyte, 1:1 Langmuir fit. The method, then:
as §7
Setup 2: Anti-mouse IgG antibody (GE Healthcare, Chicago/US) was directly coupled on a CM5 chip at pH 5.0 using the standard amine coupling kit (Biacore, Freiburg/Germany). The immobilization level was approximately 5000 RU. […] The dissociation was monitored for 720 seconds. Bulk refractive index differences were corrected for by subtracting the response obtained on reference flow cell.

B1: Molecule 18 (rbIgG of 1138) (antibody, V domains shown)
VH: QSLEESGGDLVKPGASLTLTCTASGFDLSSYYYMCWVRQAPGKGLEWIACIYADIYGGTTHYASWAKGRFTISKTSSTTVTLQMTSLTAADTATYFCAREDGSRYGGSGYYNLWGPGTLVTVSS
VL: ALVMTQTPSSVSAAVGGTVTINCQASQNIYSNLAWYQQKPGQPPKLLIYAASYLTSGVSSRFKGSGAGTQFTLTISGVECADAATYYCQQGHTTDNIDNAFGGGTEVVVKG
notes: Rabbit IgG format; also called ICOS (1138); clone 1138
For the molecule B1, the “binding of the second injection (0 = no binding; 1 = binding)” value (“binding … (0 = no binding; 1 = binding)” for short) in [1], in [11] and in [12] was 1 in each case. The “Relative Binding (%)” value with human ICOS [2] amounted to 98.2%. Besides, the “EC50 (read off the curve)” value with human ICOS [3] and in the assay with human ICOS [4] was roughly 2 nM each time. Further, the “MFI (A488), IgG only” value in the assay with human ICOS [5] turned out to be 6320 MFI. Moreover, the concentration for a half-maximal effect (EC50) with human ICOS [6] came to 0.00192 nM; with human ICOS [7], 0.00216 nM. Moreover, in the assay with human ICOS [8], the “MFI (A488), IgG + ICOSL” value was 6210 MFI. Also, in the assay with human ICOS [9], the “EC50 of activation of Jurkat-NFAT reporter cell line (luminescence)” value (“EC50 of activation … (luminescence)” for short) was 0.09 nM. In addition, the equilibrium dissociation constant (Kd) in assay [10] was determined as 0.7 nM. In addition, the off-rate constant (koff) in [10] was 0.00026 s⁻¹. Besides, the kon in assay [10] was found to be 400000 M⁻¹ s⁻¹. For the same molecule, the t1/2 in assay [10] came out at 0.728 h.

B2: Molecule 20 (rbIgG of 1143) (antibody, V domains shown)
VH: QSLEESGGDLVKPGASLTLTCKASGFDFSSAYDMCWVRQAPGKGLEWIGCVYYGDGITYYATWAKGRFTISKTSSTTVPLQMTSLTAADTATYFCARGAFLGSSYYLSLWGQGTLVTVSS
VL: AIDMTQTPASVEAAVGGTVTINCQASENIYNWLAWYQQKPGQPPKLLIYDASKLASGVPSRFSASGSGTQFTLTISAVECADAATYYCQQAYTYGNIDNAFGGGTEVVVSG
notes: Rabbit IgG format; also called ICOS (1143); clone 1143
On to B2, for which the “binding … (0 = no binding; 1 = binding)” value was 1 in assay [13], 0 in [11] and 0 in [12]. The “Relative Binding (%)” value in the assay with human ICOS [2] was 100%. Besides, the figures for the “EC50 (read off the curve)” value with human ICOS [3] and with human ICOS [4] were roughly 0.4 nM and roughly 0.3 nM, respectively. In addition, in the assay with human ICOS [5], the “MFI (A488), IgG only” value came out at 6320 MFI. Also, the half-maximal effective concentration (EC50) worked out at 0.0003 nM with human ICOS [6] and 0.0004 nM with human ICOS [7]. In addition, the “MFI (A488), IgG + ICOSL” value with human ICOS [8] stood at 6340 MFI. The “EC50 of activation … (luminescence)” value in the assay with human ICOS [9] is 0.02 nM. Besides, the Kd in [10] is 0.1 nM. In addition, the off-rate (koff) in [10] was 2.3e-05 s⁻¹. Besides, the on-rate (kon) in assay [10] amounted to 170000 M⁻¹ s⁻¹. The t1/2 in assay [10] was 8.3 h.

B3: Molecule 8 (rbIgG of 1167) (antibody, V domains shown)
VH: EVRLLESGGGLVQPGGSLRLSCAASGFTFNTYAVHWVRQAPGKGLEWVSGIGGSGVRTYYADSVKGRLTISRDNSKNTLYLQMNSLRAEDTAIYFCAKDIYVADFTGYAFDIWGQGTMVTVSS
VL: DIQMTQSPSSVSASVGDRVTITCRASQGINNFLAWYQQKPGKAPKLLIYDASSLQSGVPSRFAGSGSGTDFTLTISSLQPEDFATYYCQQYNFYPLTFGGGTMVEIKR
notes: Rabbit IgG format, from transgenic rabbit; also called ICOS (1167); clone 1167
Take B3: the “binding … (0 = no binding; 1 = binding)” value in assay [1] stood at 0; in assay [13], 1; in [11] it was 0. In addition, the “Relative Binding (%)” value with human ICOS [2] is 98.2%. The figures for the concentration giving a half-maximal response (EC50 (read off the curve)) in the assay with human ICOS [3] and with human ICOS [4] were roughly 1 nM and roughly 0.7 nM, respectively. Moreover, the “MFI (A488), IgG only” value with human ICOS [5] is 7800 MFI. Further, the EC50 with human ICOS [6] is 0.00069 nM; in the assay with human ICOS [7], 0.00113 nM. Moreover, the “MFI (A488), IgG + ICOSL” value with human ICOS [8] is 7660 MFI. In addition, the “EC50 of activation … (luminescence)” value with human ICOS [9] turned out to be 0.13 nM. Besides, the dissociation constant Kd in [10] came to 76 nM. For the same molecule, in [10], the koff was determined as 0.0061 s⁻¹. The kon in [10] stood at 81000 M⁻¹ s⁻¹. Besides, in assay [10], the t1/2 came to 0.0317 h.

B4: Molecule 14 (muIgG of 009) (antibody, V domains shown)
VH: EVRLDETGGGVVQPGRPMELSCVASGFTFSDYWMNWVRQSPEKGLEWVAQIRNKPYNYETYYSDSVKGRFTISRDDSKSRVYLQMNNLRAEDMGIYYCTWPRLRSSDWHFDVWGAGTTVTVSS
VL: AIQMTQSPSSLSASLGGEVTITCKASQDINKNIAWYQHKPGRGPRLLIWYTSTLQTGIPSRFSGSGSGRDYSFTISNLEPEDFATYYCLQFDNLYTFGSGTKLEIR
notes: Mouse IgG purified from hybridoma; also called ICOS (009); clone 009
As for B4, the “binding … (0 = no binding; 1 = binding)” value in [1] amounted to 0; in [13], 1; in [12], 0. Also, the “Relative Binding (%)” value with human ICOS [2] is 97.3%. The half-maximal effective concentration (EC50 (read off the curve)) with human ICOS [3] was roughly 1 nM; with human ICOS [4], roughly 3 nM. In the assay with human ICOS [5], the “MFI (A488), IgG only” value was 7190 MFI. Moreover, the 50% effective concentration (EC50) was 0.00297 nM with human ICOS [6] and 0.0014 nM in the assay with human ICOS [7]. The Kd in assay [14] worked out at 2 nM. Besides, the koff in assay [14] is 0.00014 s⁻¹. Also, the kon in assay [14] came out at 61000 M⁻¹ s⁻¹. In [14], the t1/2 is 1.36 h. Besides, the “MFI (A488), IgG + ICOSL” value in the assay with human ICOS [8] stood at 7000 MFI. In the assay with human ICOS [9], the “EC50 of activation … (luminescence)” value is 0.08 nM.
